Experimental data as given in PMC4003566.

Target: human α7 nAChR TM domain (human)
Assay: SEC-MALS

stoichiometry N: 5
Substance: human α7 nAChR TM domain (domain or fragment)
